Test results as given in US20190322724A1.

What follows are substances tested against active 62 kDa MMP-2 (UniProt P08253) (assay: fluorometric MMP-2 activity assay, competitive inhibition fit; TIMP-2 0-2.5 nM, substrate 0.83-6.66 µM).
Sequence of active 62 kDa MMP-2 (P08253 110-660 limits assumed): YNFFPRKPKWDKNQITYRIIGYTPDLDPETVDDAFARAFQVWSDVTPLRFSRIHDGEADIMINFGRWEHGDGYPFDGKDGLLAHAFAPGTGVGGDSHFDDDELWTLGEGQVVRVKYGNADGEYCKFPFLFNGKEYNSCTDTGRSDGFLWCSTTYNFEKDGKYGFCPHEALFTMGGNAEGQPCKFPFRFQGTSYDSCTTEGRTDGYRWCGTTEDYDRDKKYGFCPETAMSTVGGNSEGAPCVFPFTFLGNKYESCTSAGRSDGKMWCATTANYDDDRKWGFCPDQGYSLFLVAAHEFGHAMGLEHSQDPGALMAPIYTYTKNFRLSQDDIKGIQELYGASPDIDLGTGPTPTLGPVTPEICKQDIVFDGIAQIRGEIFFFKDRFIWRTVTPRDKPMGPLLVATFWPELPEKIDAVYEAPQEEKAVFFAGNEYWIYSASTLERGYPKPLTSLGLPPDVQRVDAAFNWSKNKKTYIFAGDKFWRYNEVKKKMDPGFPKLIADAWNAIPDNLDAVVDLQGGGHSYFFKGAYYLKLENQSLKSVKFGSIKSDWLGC

Sequence of wild type human TIMP-2 with C-terminal His6 tag (WT TIMP-2-His6) (P16035 other isoform, or with tags, fused parts or gaps): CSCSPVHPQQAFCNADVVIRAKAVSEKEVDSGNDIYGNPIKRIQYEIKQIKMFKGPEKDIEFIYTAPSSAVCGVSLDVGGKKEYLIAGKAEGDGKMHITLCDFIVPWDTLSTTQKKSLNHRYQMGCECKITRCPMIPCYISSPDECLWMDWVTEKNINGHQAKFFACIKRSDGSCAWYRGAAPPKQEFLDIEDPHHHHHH

Row | Ki [nM] | Substance
1 | 0.3 | TIMP-2 Y90E-His6 (from UniProt P16035 27-220)
2 | 1.4 | TIMP-2 Y90F-His6 (from UniProt P16035 27-220)
3 | 1.5 | wild type human TIMP-2 with C-terminal His6 tag (WT TIMP-2-His6) (from UniProt P16035 27-220)
